Where a chain is given by its changes, count along the chain named.
B1: h1E9-1 (VH3-21-Vκ1-9) scFv (scFv)
scFv: MEVQLVESGGGLVKPGGSLRLSCAASGFTFSTFGMSWVRQAPGKGLEWVSTISGGGSDTYYPDSVQGRFTISRDNAKNSLYLQMNSLRAEDTAVYYCARQGYDVYSWFAYWGQGTLVTVSSGGGGSGGGGSGGGGSDIQLTQSPSFLSASVGDRVTITCRASESVDNSGISFMSWYQQKPGKAPKLLIYTASNQGSGVPSRFSGSGSGTEFTLTISSLQPEDFATYYCQQSKEVPWTFGQGTKVEIKGSGDYKDDDDKGSGHHHHHH
notes: Whole scFv chain with FlagHis tag
B2: h1E9-4 (VH3-7-Vκ1-9) scFv (scFv)
scFv: B1 scFv with K14Q, S50A
notes: as for B1
B3: h1E9-2 (VH3-21-Vκ3-11) scFv (scFv)
scFv: MEVQLVESGGGLVKPGGSLRLSCAASGFTFSTFGMSWVRQAPGKGLEWVSTISGGGSDTYYPDSVQGRFTISRDNAKNSLYLQMNSLRAEDTAVYYCARQGYDVYSWFAYWGQGTLVTVSSGGGGSGGGGSGGGGSEIVLTQSPATLSLSPGERATLSCRASESVDNSGISFMSWYQQKPGQAPRLLIYTASNQGSGIPARFSGSGSGTDFTLTISSLEPEDFAVYYCQQSKEVPWTFGQGTKVEIKGSGDYKDDDDKGSGHHHHHH
notes: as for B1
B4: h1E9-5 (VH3-7-Vκ3-11) scFv (scFv)
scFv: B3 scFv with K14Q, S50A
notes: as for B1
B5: m4B10 scFv (scFv)
scFv: MEVKLVESGGGLVKPGGSLKLSCAASGFTFSTYGMSWVRQTPEKRLQWVATISGGGSNTYYSDSVKGRFTISRDNAKNNLYLQMSSLRSEDTALYYCARQRDSAWFASWGQGTLVTVSAGGGGSGGGGSGGGGSDIVLTQSPASLAVSLGQRATISCRASENVDDYGVSFMNWFQQKPGQPPKLLIYPASNQGSGVPARFSGSGSGTDFSLNIHPMEEDDTAMYFCQQSKEVPWTFGGGTKLEIKGSGDYKDDDDKGSGHHHHHH
notes: Mouse single-chain antibody, whole chain with FlagHis tag
B6: h4B10-1 (VH3-15-Vκ3-11) scFv (scFv)
scFv: MEVQLVESGGGLVKPGGSLRLSCAASGFTFSTYGMSWVRQAPGKGLEWVATISGGGSNTYYSDSVKGRFTISRDDSKNTLYLQMNSLKTEDTAVYYCARQRDSAWFASWGQGTLVTVSSGGGGSGGGGSGGGGSEIVLTQSPATLSLSPGERATLSCRASENVDDYGVSFMNWYQQKPGQAPRLLIYPASNQGSGIPARFSGSGSGTDFTLTISSLEPEDFAVYYCQQSKEVPWTFGQGTKVEIKGSGDYKDDDDKGSGHHHHHH
notes: as for B1
B7: h4B10-2 (VH3-15-Vκ3-20) scFv (scFv)
scFv: B6 scFv with A143G, A198D, S215R
notes: as for B1
B8: h4B10-3 (VH3-15-Vκ4-1) scFv (scFv)
scFv: MEVQLVESGGGLVKPGGSLRLSCAASGFTFSTYGMSWVRQAPGKGLEWVATISGGGSNTYYSDSVKGRFTISRDDSKNTLYLQMNSLKTEDTAVYYCARQRDSAWFASWGQGTLVTVSSGGGGSGGGGSGGGGSDIVMTQSPDSLAVSLGERATINCRASENVDDYGVSFMNWYQQKPGQPPKLLIYPASNQGSGVPDRFSGSGSGTDFTLTISSLQAEDVAVYYCQQSKEVPWTFGGGTKLEIKGSGDYKDDDDKGSGHHHHHH
notes: as for B1
B9: m1B10 scFv (scFv)
scFv: MSDVQLQESGPGLVKPSQSLSLTCTVTGHSITSDYAWNWIRQFPGNKLEWMGYISYSGRTSYNPSLTSRISITRDTSKNQFFLQLNSVTTEDTATYYCARGYALDYWGQGTSVTVSSGGGGSGGGGSGGGGSQIVLSQSPAILSASPGEKVTMTCRTSSSVNYMHWFQQKPGSSPKPWIYATSKLASGVPARFSGSGSGTSYSLTISRVEAEDAATYFCQQWISDPWTFGGGTKLEIKGSGDYKDDDDKGSGHHHHHH
notes: as for B5

biological target: T1, Human PD-1 (ACROBiosystems, Inc., Catalog No. PD1-H5221) (human, UniProt Q15116 25-167); test: SPR (Biacore), scFv captured on anti-FLAG, PD-1 as analyte
T1 construct: Bought recombinant protein; also called huPD1-His; PD-1-his; not shown: His tag of the bought protein (huPD1-His)
Procedure: Monoclonal anti-FLAG M2 IgG (Sigma-Aldrich #F9291) was immobilized onto a CMS chip (GE Life Sciences) using amine coupling chemistry (from Amine Coupling Kit, GE Life Sciences). The immobilization steps were carried out at a flow rate of 25 μl/min in 1×HBS-EP+ buffer (GE Life Sciences; 10× Stock diluted before use). The sensor surfaces were activated for 7 min with a mixture of NHS (0.05 M) and EDC (0.2 M). The Anti-FLAG M2 IgG was injected over all 4 flow cells at a concentration of 25 μg/ml in 10 mM sodium acetate, pH 4.5, for 7 min. Ethanolamine (1 M, pH 8.5) was injected for 7 min to block any remaining activated groups.
Off-rate and kinetic binding experiments were performed at 25° C. using 1×HBS-EP+ buffer. Test and control antibodies were injected over the Anti-FLAG surface at concentrations of 5-10 μg/mL for 12 seconds at a flow rate of 10 μl/min on flow cells 2, 3 and 4, followed by a buffer wash for 30 seconds at the same flow rate. Kinetic characterization of antibody samples was carried out with a single concentration of antigen (for off-rate ranking) or a 1:2 dilution series of antigen (for kinetic characterization) and 1 injection of 0 nM antigen (i.e., buffer alone). After capturing ligand (anti-PD-1 antibody) on the anti-FLAG surface, the analyte (huPD1-His) was bound at 50, 25, 12.5, 6.25 and 0 nM for 180 seconds, followed by a 600 second dissociation phase at a flow rate of 50 μl/min. Between each ligand capture and analyte binding cycle, regeneration was carried out using 2 injections of 10 mM glycine pH 2.0 for 30 seconds at 30 μL/min, followed by a 30 second buffer wash step.
The data was fit with the Biacore T200 Evaluation software, using a 1:1 Langmuir binding model. KD (affinity, nM) was determined as a ratio of the kinetic rate constants calculated from the fits of the association and dissociation phases.

T1 sequence (Q15116 25-167 limits assumed): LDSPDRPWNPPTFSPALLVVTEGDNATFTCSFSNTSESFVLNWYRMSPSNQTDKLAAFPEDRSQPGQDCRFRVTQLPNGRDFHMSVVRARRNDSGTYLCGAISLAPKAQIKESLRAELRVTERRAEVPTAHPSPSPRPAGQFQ

Row | Binder | Kd [nM] | koff [s⁻¹] | kon [M⁻¹ s⁻¹]
1 | B1 | 2.58 | 0.000468 | 182000
2 | B2 | 3.66 | 0.000679 | 185000
3 | B3 | 38.5 | 0.00182 | 47400
4 | B4 | 3.15 | 0.000628 | 200000
5 | B5 | 5.14 | 0.000417 | 81200
6 | B6 | 2.47 | 0.00299 | 1.21e+06
7 | B7 | 2.79 | 0.00324 | 1.16e+06
8 | B8 | 1.2 | 0.000617 | 513000
9 | B9 | 12.8 | 0.00239 | 186000
